Measured values reported in PMC9482650, “Quantitative fragmentomics allow affinity mapping of interactomes” (Nature Communications, 2022).

T1: APBA1_1, Q02410
T1 sequence (Q02410 651-752, limits assumed, looked up): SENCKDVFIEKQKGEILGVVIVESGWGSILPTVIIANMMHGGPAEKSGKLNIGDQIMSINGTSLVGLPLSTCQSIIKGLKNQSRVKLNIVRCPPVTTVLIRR

B1: CRIPT, Q9P021 (peptide)
chain: DTKNYKQTSV
B2: CNTNAP2, Q9UHC6 (peptide)
chain: IDESKKEWLI
B3: FAM110D, Q8TAY7 (peptide)
chain: ARGPPRESEV
B4: MYPN, Q86TC9 (peptide)
chain: SRSVVESDEL
B5: CACNG2, Q9Y698 (peptide)
chain: NTANRRTTPV
B6: CACNG8, Q8WXS5 (peptide)
chain: NTLNRKTTPV
B7: SLC16A7, O60669 (peptide)
chain: SVTSERETNI
B8: KLHDC7A, Q5VTJ3 (peptide)
chain: PTPDLPQTRV
B9: CLDN4, O14493 (peptide)
chain: ARSAAASNYV
B10: PTPRG, P23470 (peptide)
chain: DPAESMESLV
B11: PTTG2, Q9NZH5 (peptide)
chain: LPAVCYDIDI
B12: GRIA2, P42262 (peptide)
chain: NVYGIESVKI
B13: SBF1, O95248 (peptide)
chain: DRIQSCLSDA
B14: NCF1, P14598 (peptide)
chain: STKRKLASAV
B15: SCN5A, Q14524 (peptide)
chain: SPDRDRESIV
B16: MKNK1, Q9BUB5 (peptide)
chain: GEDRSPPTAL
B17: MARCHF3, Q86UD3 (peptide)
chain: VKRNSKETVV
B18: KCNA7, Q96RP8 (peptide)
chain: PPGKHLVTEV
B19: GPR12, P47775 (peptide)
chain: AQRARSPSDV
B20: ZSCAN30, Q86W11 (peptide)
chain: MQHQRTHTRV
B21: PTPRZ1, P23471 (peptide)
chain: NIAESLESLV
B22: REELD1, A0A1B0GV85 (peptide)
chain: PSVGSKKTVL
B23: CIB2, O75838 (peptide)
chain: DFLSTFHIRI
B24: MYOT, Q9UBF9 (peptide)
chain: QSGLYESEEL
B25: FZD10, Q9ULW2 (peptide)
chain: EIPAQSPTCV
B26: KIRREL2, Q6UWL6 (peptide)
chain: PSHPRLQTHV
B27: OR8G1, Q15617 (peptide)
chain: KKMLQRRTLL
B28: MTNR1A, P48039 (peptide)
chain: NNNVVKVDSV
B29: FAM110B, Q8TC76 (peptide)
chain: ARESQKVSHV
B30: PRR16, Q569H4 (peptide)
chain: ILRKSTTTTV
B31: TRPV6, Q9H1D0 (peptide)
chain: EDGESWEYQI
B32: NECTIN1, Q15223 (peptide)
chain: SFISKKEWYV
B33: KCNJ18, B7U540 (peptide)
chain: QRPYRRGSEI
B34: KCNJ4, P48050 (peptide)
chain: NISYRRESAI
B35: PTGIR, P43119 (peptide)
chain: AEASVACSLC
B36: MUC3A, MUC3B, Q02505;Q9H195 (peptide)
chain: KRPEMTSSSV
B37: SCN8A, Q9UQD0 (peptide)
chain: RQKEVRESKC
B38: KARS1, Q15046 (peptide)
chain: LESTTVGTSV
B39: SLCO1A2, P46721 (peptide)
chain: LKDDELKTKL
B40: RPS6KA3, P51812 (peptide)
chain: GIKKITSTAL
B41: NF2, P35240;P35240-1 (peptide)
chain: KSRVAFFEEL
B42: FZD2, Q14332 (peptide)
chain: TNSRHGETTV
B43: CACNA1A, O00555 (peptide)
chain: PYSESDDDWC
B44: SLC1A1, P43005 (peptide)
chain: TISFTQTSQF
B45: ABCA1, O95477 (peptide)
chain: QDEKVKESYV
B46: FRMPD1, Q5SYB0 (peptide)
chain: TQKFRASTAL
B47: RTKN, Q9BST9 (peptide)
chain: QPRTWLQSPV
B48: ACE2, Q9BYF1 (peptide)
chain: QNTDDVQTSF

molecular target: T1, APBA1_1, Q02410; assay: holdup assay; set-up: key: below the threshold = too weak to quantify, mostly under pKd 3.1 to 4; conditions: plain residues with an end cap or a label only (N-terminal biotin on a linker: ado-ado)

| Binder | pKd |
| --- | --- |
| B1 | below the threshold |
| B2 | below the threshold |
| B3 | below the threshold |
| B4 | below the threshold |
| B5 | below the threshold |
| B6 | below the threshold |
| B7 | below the threshold |
| B8 | below the threshold |
| B9 | below the threshold |
| B10 | below the threshold |
| B11 | below the threshold |
| B12 | 3.52 |
| B13 | below the threshold |
| B14 | below the threshold |
| B15 | below the threshold |
| B16 | below the threshold |
| B17 | below the threshold |
| B18 | below the threshold |
| B19 | below the threshold |
| B20 | below the threshold |
| B21 | below the threshold |
| B22 | below the threshold |

| Binder | pKd |
| --- | --- |
| B23 | 4.08 |
| B24 | below the threshold |
| B25 | below the threshold |
| B26 | below the threshold |
| B27 | below the threshold |
| B28 | below the threshold |
| B29 | below the threshold |
| B30 | below the threshold |
| B31 | below the threshold |
| B32 | below the threshold |
| B33 | below the threshold |
| B34 | below the threshold |
| B35 | below the threshold |
| B36 | below the threshold |
| B37 | below the threshold |
| B38 | below the threshold |
| B39 | below the threshold |
| B40 | below the threshold |
| B41 | below the threshold |
| B42 | below the threshold |
| B43 | 3.48 |
| B44 | below the threshold |

same assay, conditions: plain residues with an end cap or a label only (N-terminal biotin on a linker: ahx)

| Binder | pKd |
| --- | --- |
| B45 | below the threshold |
| B46 | below the threshold |
| B47 | below the threshold |
| B48 | below the threshold |

molecular target: SCRIB_1, Q14160; assay: holdup assay; set-up: key: below the threshold = too weak to quantify, mostly under pKd 3.1 to 4; conditions: plain residues with an end cap or a label only (N-terminal biotin on a linker: ado-ado)
Sequence (Q14160 718-814): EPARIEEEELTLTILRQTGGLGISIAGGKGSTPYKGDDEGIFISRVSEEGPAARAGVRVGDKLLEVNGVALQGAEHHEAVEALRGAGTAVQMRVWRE

| Binder | pKd |
| --- | --- |
| B1 | 4.88 |
| B2 | below the threshold |
| B3 | 4.88 |
| B4 | 3.49 |
| B5 | 3.49 |
| B6 | 3.64 |
| B7 | 4.1 |
| B8 | below the threshold |
| B9 | below the threshold |
| B10 | below the threshold |
| B11 | below the threshold |
| B12 | below the threshold |
| B13 | below the threshold |
| B14 | below the threshold |
| B15 | 3.57 |
| B16 | below the threshold |
| B17 | 4.55 |
| B18 | 4.72 |
| B19 | below the threshold |
| B20 | 3.68 |
| B21 | 3.87 |

| Binder | pKd |
| --- | --- |
| B22 | below the threshold |
| B23 | below the threshold |
| B24 | 3.76 |
| B25 | 3.81 |
| B26 | 3.88 |
| B27 | 3.71 |
| B28 | below the threshold |
| B29 | 3.74 |
| B30 | 3.76 |
| B31 | below the threshold |
| B32 | below the threshold |
| B33 | below the threshold |
| B34 | 3.89 |
| B35 | below the threshold |
| B37 | 4.53 |
| B38 | 3.81 |
| B39 | below the threshold |
| B40 | 4.94 |
| B42 | 4.25 |
| B43 | below the threshold |
| B44 | 3.5 |

same assay, conditions: plain residues with an end cap or a label only (N-terminal biotin on a linker: ahx)

| Binder | pKd |
| --- | --- |
| B45 | 4.15 |
| B46 | 4.22 |
| B47 | 3.69 |
| B48 | below the threshold |

molecular target: DLG1_2, Q12959; assay: holdup assay; set-up: key: below the threshold = too weak to quantify, mostly under pKd 3.1 to 4; conditions: plain residues with an end cap or a label only (N-terminal biotin on a linker: ado-ado)
Sequence (Q12959 314-412): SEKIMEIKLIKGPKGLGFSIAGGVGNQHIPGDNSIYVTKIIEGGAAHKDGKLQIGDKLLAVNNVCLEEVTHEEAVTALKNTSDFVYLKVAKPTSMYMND

| Binder | pKd |
| --- | --- |
| B1 | 5.07 |
| B2 | below the threshold |
| B3 | 5.48 |
| B4 | below the threshold |
| B5 | 5.01 |
| B6 | 5.05 |
| B7 | 4.42 |
| B8 | 3.53 |
| B9 | below the threshold |
| B10 | 5.03 |
| B11 | below the threshold |
| B12 | 3.96 |
| B13 | below the threshold |
| B14 | 4.61 |
| B15 | 4.86 |
| B16 | below the threshold |
| B17 | 6.11 |
| B18 | 5.1 |
| B19 | 3.75 |
| B20 | 5.12 |
| B21 | 5.31 |

| Binder | pKd |
| --- | --- |
| B22 | 3.79 |
| B23 | below the threshold |
| B24 | below the threshold |
| B25 | 3.86 |
| B26 | 4.65 |
| B27 | 4.09 |
| B28 | below the threshold |
| B29 | 4.68 |
| B30 | 5.43 |
| B31 | below the threshold |
| B32 | 3.77 |
| B33 | 3.51 |
| B34 | 4.48 |
| B35 | below the threshold |
| B37 | 3.55 |
| B38 | 4.34 |
| B39 | below the threshold |
| B40 | 4.32 |
| B42 | 5.17 |
| B43 | below the threshold |
| B44 | 3.83 |

same assay, conditions: plain residues with an end cap or a label only (N-terminal biotin on a linker: ahx)

| Binder | pKd |
| --- | --- |
| B45 | 5.09 |
| B46 | 3.62 |
| B47 | 4.3 |
| B48 | 3.54 |
